Data taken from patent US20260265381A1.

Legend:
[1] = target: human HLA-G expressed on cells (JEG3 cells, natural; SKOV3 cells transfected with recombinant HLA-G) (human) (UniProt P17693); assay: flow cytometry on JEG3 cells (natural HLA-G); isotype control; detection with goat anti-human IgG (H+L) Alexa 488
[2] = target: human HLA-G expressed on cells (JEG3 cells, natural; SKOV3 cells transfected with recombinant HLA-G) (human) (UniProt P17693); assay: flow cytometry on SKOV3 HLA-G cells (SKOV3 transfected with HLA-G); isotype control; detection with goat anti-human IgG (H+L) Alexa 488

- MFI [1]: 57
- MFI [2]: 78
Substance: Isotype (antibody)
